Source: patent US20260152561A1

Tests used:
[1] = biological target: MICA/MICB on tumor cells (MGC-803, U2OS); assay: cell-based or functional assay
[2] = biological target: PD-L1 on tumor cells (EMT6-PD-L1, U2OS) (UniProt Q9NZQ7); assay: cell-based or functional assay
UniProt Q9NZQ7, sequence (Q9NZQ7 19-290 limits assumed): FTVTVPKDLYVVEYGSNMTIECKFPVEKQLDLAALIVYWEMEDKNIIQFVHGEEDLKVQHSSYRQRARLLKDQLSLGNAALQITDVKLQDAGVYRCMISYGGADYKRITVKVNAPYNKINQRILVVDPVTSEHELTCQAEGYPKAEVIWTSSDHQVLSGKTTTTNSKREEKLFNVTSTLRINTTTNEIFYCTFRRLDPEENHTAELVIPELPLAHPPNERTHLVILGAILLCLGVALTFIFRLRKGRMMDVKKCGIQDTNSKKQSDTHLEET

Question: Which cytotoxicity (luciferase killing assay, effector-to-target ratio 5:1) on U2OS cells [1] does the source give for “dual-targeting chimeric antigen receptor PD1-DAP10-41BB-P2A-NKG2D-IgG4-CD28-41BB-CD3ζ, expressed on NK92 cells (PN-CAR-NK92)” here?
Answer: 6 fold

Question: And the cytotoxicity (luciferase killing assay, effector-to-target ratio 5:1) on U2OS cells [2]?
Answer: 6 fold
